Our source for the IL-2 EC50 (nM) (approx.); SEAP induction in the HEK IL-2 reporter cell line, OD values is patent US20220010337A1.

In this test the target is IL2 receptors (on the HEK IL-2 reporter cell line) (human) (UniProt P01589). As to the kind of experiment: cell-based or functional assay.
Chain of IL2 receptors (on the HEK IL-2 reporter cell line) (human) (P01589 22-272, chain 1 of 3): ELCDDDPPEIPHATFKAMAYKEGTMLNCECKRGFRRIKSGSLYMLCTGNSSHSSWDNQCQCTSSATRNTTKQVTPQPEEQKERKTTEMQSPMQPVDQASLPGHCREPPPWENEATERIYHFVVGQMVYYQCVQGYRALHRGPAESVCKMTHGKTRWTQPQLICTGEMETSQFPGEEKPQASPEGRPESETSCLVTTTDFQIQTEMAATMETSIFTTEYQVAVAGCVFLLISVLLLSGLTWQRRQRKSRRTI
Chain of IL2 receptors (on the HEK IL-2 reporter cell line) (human) (P14784 27-551, chain 2 of 3, further chain): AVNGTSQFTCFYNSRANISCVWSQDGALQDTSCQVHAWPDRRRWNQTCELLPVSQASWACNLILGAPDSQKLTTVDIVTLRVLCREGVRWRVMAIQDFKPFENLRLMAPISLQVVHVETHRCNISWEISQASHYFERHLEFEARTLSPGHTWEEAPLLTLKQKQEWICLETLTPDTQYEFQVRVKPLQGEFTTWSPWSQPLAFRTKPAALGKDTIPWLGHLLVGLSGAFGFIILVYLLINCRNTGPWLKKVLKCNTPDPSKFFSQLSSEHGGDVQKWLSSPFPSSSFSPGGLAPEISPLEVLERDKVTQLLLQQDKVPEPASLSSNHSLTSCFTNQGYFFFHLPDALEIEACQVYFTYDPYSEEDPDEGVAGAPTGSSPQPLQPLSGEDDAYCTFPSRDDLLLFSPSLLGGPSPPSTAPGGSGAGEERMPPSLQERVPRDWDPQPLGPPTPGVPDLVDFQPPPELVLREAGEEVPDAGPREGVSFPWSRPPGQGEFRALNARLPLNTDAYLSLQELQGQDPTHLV
Chain of IL2 receptors (on the HEK IL-2 reporter cell line) (human) (P31785 23-369, chain 3 of 3, further chain): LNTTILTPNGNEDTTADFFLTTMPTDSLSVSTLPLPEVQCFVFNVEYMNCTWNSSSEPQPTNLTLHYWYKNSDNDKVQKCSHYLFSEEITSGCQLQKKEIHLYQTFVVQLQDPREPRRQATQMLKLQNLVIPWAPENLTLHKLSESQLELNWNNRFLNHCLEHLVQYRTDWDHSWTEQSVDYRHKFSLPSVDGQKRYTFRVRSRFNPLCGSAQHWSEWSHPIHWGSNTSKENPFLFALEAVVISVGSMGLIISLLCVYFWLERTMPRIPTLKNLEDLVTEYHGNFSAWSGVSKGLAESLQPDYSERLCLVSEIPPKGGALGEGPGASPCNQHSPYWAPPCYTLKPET
“Cas9-2xNLS-IL2(superkine) (from UniProt P60568 21-153)” gave an IL-2 EC50 (nM) (approx.); SEAP induction in the HEK IL-2 reporter cell line, OD of 0.87 nM. “Cas9-2xNLS-mouse WT IL2 (from UniProt P04351 21-169)” had an IL-2 EC50 (nM) (approx.); SEAP induction in the HEK IL-2 reporter cell line, OD of 0.34 nM. Substance IL2(SK)-SpyTag (ligand) displayed an IL-2 EC50 (nM) (approx.); SEAP induction in the HEK IL-2 reporter cell line, OD of 0.037 nM. The result for “SpyCatcher-Cas9(WT)-2xNLS:Spytag-IL2(SK) conjugate (from UniProt Q99ZW2 2-1368)” reads 0.0095 nM; that for “recombinant mouse IL-2 (from UniProt P04351 21-169) (ligand)”, 0.0057 nM.
